Source: patent US4285932A, “Enzyme derivatives for use in the treatment of venous thrombosis” (Beecham Group Limited, priority 1978, dated 1981)

Tested on: Human Plasmin
Assay: Deacylation (hydrolysis) of active-site blocked human plasmin, pseudo-first order rate constant followed by regain of activity on chromogenic substrate S-2251
Type: biochemical
Conditions: active site serine substituted human plasmin; pH 7.4, 37° C.
Description: The pseudo-first order rate constant is determined by hydrolysing the enzyme derivative under physiological conditions i.e. in isotonic aqueous media at pH 7.4 and at 37° C. At regular intervals aliquots are withdrawn and incubated with a chromogenic or fluorogenic protease substrate such as S-2251 (H-D-Val-Leu-Lys-p-nitroanilide 2HCl) and the rate of conversion of the substrate measured.
The hydrolysis is followed until such time as the rate of conversion of substrate reaches a maximum. The rate constant k is then calculated by plotting: […]
loge (1-^At /Amax) against t
where Amax the maximum rate at which an aliquot converts substrate and At is the rate at which an aliquot converts substrate at time t.

B1: Acetylsalicycloyl: human plasmin, active site serine blocked by acetylsalicyloyl (acylating agent of Example 7) (protein, UniProt P00747 20-580; P00747 581-810, looked up)
Plasmin heavy chain A: EPLDDYVNTQGASLFSVTKKQLGAGSIEECAAKCEEDEEFTCRAFQYHSKEQQCVIMAENRKSSIIIRMRDVVLFEKKVYLSECKTGNGKNYRGTMSKTKNGITCQKWSSTSPHRPRFSPATHPSEGLEENYCRNPDNDPQGPWCYTTDPEKRYDYCDILECEEECMHCSGENYDGKISKTMSGLECQAWDSQSPHAHGYIPSKFPNKNLKKNYCRNPDRELRPWCFTTDPNKRWELCDIPRCTTPPPSSGPTYQCLKGTGENYRGNVAVTVSGHTCQHWSAQTPHTHNRTPENFPCKNLDENYCRNPDGKRAPWCHTTNSQVRWEYCKIPSCDSSPVSTEQLAPTAPPELTPVVQDCYHGDGQSYRGTSSTTTTGKKCQSWSSMTPHRHQKTPENYPNAGLTMNYCRNPDADKGPWCFTTDPSVRWEYCNLKKCSGTEASVVAPPPVVLLPDVETPSEEDCMFGNGKGYRGKRATTVTGTPCQDWAAQEPHRHSIFTPETNPRAGLEKNYCRNPDGDVGGPWCYTTNPRKLYDYCDVPQCAAPSFDCGKPQVEPKKCPGR
Plasmin light chain B: VVGGCVAHPHSWPWQVSLRTRFGMHFCGGTLISPEWVLTAAHCLEKSPRPSSYKVILGAHQEVNLEPHVQEIEVSRLFLEPTRKDIALLKLSSPAVITDKVIPACLPSPNYVVADRTECFITGWGETQGTFGAGLLKEAQLPVIENKVCNRYEFLNGRVQSTELCAGHLAGGTDSCQGDSGGPLVCFEKDKYILQGVTSWGLGCARPNKPGVYVRVSRFVTWIEGVMRNN
modifications: plasmin acetylsalicyloyl acylated active site
Q: Which “Deacylation rate, Human Plasmin K sec^-1 × 10^4” value does the source give for B1 here?
A: 4.70 sec^-1 × 10^4

B2: 3,3 Dimethylacryloyl: human plasmin, active site serine blocked by 3,3-dimethylacryloyl (acylating agent of Example 4) (protein, UniProt P00747 20-580; P00747 581-810, looked up)
Plasmin heavy chain A: EPLDDYVNTQGASLFSVTKKQLGAGSIEECAAKCEEDEEFTCRAFQYHSKEQQCVIMAENRKSSIIIRMRDVVLFEKKVYLSECKTGNGKNYRGTMSKTKNGITCQKWSSTSPHRPRFSPATHPSEGLEENYCRNPDNDPQGPWCYTTDPEKRYDYCDILECEEECMHCSGENYDGKISKTMSGLECQAWDSQSPHAHGYIPSKFPNKNLKKNYCRNPDRELRPWCFTTDPNKRWELCDIPRCTTPPPSSGPTYQCLKGTGENYRGNVAVTVSGHTCQHWSAQTPHTHNRTPENFPCKNLDENYCRNPDGKRAPWCHTTNSQVRWEYCKIPSCDSSPVSTEQLAPTAPPELTPVVQDCYHGDGQSYRGTSSTTTTGKKCQSWSSMTPHRHQKTPENYPNAGLTMNYCRNPDADKGPWCFTTDPSVRWEYCNLKKCSGTEASVVAPPPVVLLPDVETPSEEDCMFGNGKGYRGKRATTVTGTPCQDWAAQEPHRHSIFTPETNPRAGLEKNYCRNPDGDVGGPWCYTTNPRKLYDYCDVPQCAAPSFDCGKPQVEPKKCPGR
Plasmin light chain B: VVGGCVAHPHSWPWQVSLRTRFGMHFCGGTLISPEWVLTAAHCLEKSPRPSSYKVILGAHQEVNLEPHVQEIEVSRLFLEPTRKDIALLKLSSPAVITDKVIPACLPSPNYVVADRTECFITGWGETQGTFGAGLLKEAQLPVIENKVCNRYEFLNGRVQSTELCAGHLAGGTDSCQGDSGGPLVCFEKDKYILQGVTSWGLGCARPNKPGVYVRVSRFVTWIEGVMRNN
modifications: plasmin 3,3-dimethylacryloyl acylated active site
Q: How did the “Deacylation rate, Human Plasmin K sec^-1 × 10^4” value turn out when B2 was run?
A: 0.69 sec^-1 × 10^4
